Test results as given in publication PMC3323041 (The Journal of Biological Chemistry, 2012).

B1: Mdv1(94-314) K215A/K216A, containing the NTE and coiled coil (domain or fragment, S. cerevisiae, UniProt P47025 94-314, looked up)
chain: DNKTCFRMLTYISDDLLNEIPTKEGLKSDADGKLLTEGGENENLRKNASKKETSLFQGFKSYLPIAELAIENTERLNYDTNGTSGTVGAKDVMSKTNERDEIHTELPNFQDSFLIPPGVETAAISSSYSPSALKSFSQTLVNSLEFLNIQKNSTLSEIRDIEVEVENLRQKKEKLLGKIANIEQNQLLLEDNLKQIDDRLDFLEEYGLEVIEANSDENAED

Legend:
crystal structure = molecular target: the molecule itself; experiment: crystal structure
[1] = molecular target: B1; experiment: crystal structure

binding result [1] | Binder | binding result (crystal structure)
 | B1 | binds
binds | Yeast Fis1(1-129), lacking the transmembrane segment (domain or fragment, S. cerevisiae, UniProt P40515 1-129, looked up) MTKVDFWPTLKDAYEPLYPQQLEILRQQVVSEGGPTATIQSRFNYAWGLIKSTDVNDERLGVKILTDIYKEAESRRRECLYYLTIGCYKLGEYSMAKRYVDTLFEHERNNKQVGALKSMVEDKIQKETL | 
